Laboratory results published in patent US20200317792A1 (INSMED, published 2020).
Positions count from the first letter of the chain named.

B1: CoDAH design C1 VH/C4 Vκ (antibody, V domains shown)
VH: QVQLQQSGPGLVKPSQTLSLTCTVSGFSLTNYGVHWVRQSPGKGLEWLGVIWSGGNTDYNTPFTSRLTISKDTSKNQVSLKLSSVTSNDTAVYYCARALTYYDYEFAYWGQGTLVTVSA
VL: DIVLTQSPVILSVSPGERVTFSCRASQSIGTNIHWYQQKPDQSPKLLIKYASESISGVPSRFSGSGSGTDFTLTINSVESEDIADYYCQQNNNWPTTFGQGTKLELKR
notes: Cross pair; Measured as full length IgG
B2: CoDAH design C1 VH/C1 Vκ (antibody, V domains shown)
VH: B1 VH
VL: B1 VL with V9D, I10F, L11Q, S14T, G16K, R18K, F21I, S22T, Q100A
notes: Pareto optimal design; Measured as full length IgG
B3: CoDAH design C1 VH/C2 Vκ (antibody, V domains shown)
VH: B1 VH
VL: B1 VL with I10F, S14T, R18K, F21I, S22T, Q100A
notes: as for B1
B4: CoDAH design C1 VH/C3 Vκ (antibody, V domains shown)
VH: B1 VH
VL: B1 VL with V3L, Q100A
notes: as for B1
B5: CoDAH design C1 VH/C5 Vκ (antibody, V domains shown)
VH: B1 VH
VL: B1 VL with D1E, P40T, K45R, V58I
notes: as for B1
B6: CoDAH design C2 VH/C1 Vκ (antibody, V domains shown)
VH: B1 VH with K71V
VL: B1 VL with V9D, I10F, L11Q, S14T, G16K, R18K, F21I, S22T, Q100A
notes: as for B1
B7: CoDAH design C2 VH/C2 Vκ (antibody, V domains shown)
VH: B1 VH with K71V
VL: B1 VL with I10F, S14T, R18K, F21I, S22T, Q100A
notes: as for B2
B8: CoDAH design C2 VH/C3 Vκ (antibody, V domains shown)
VH: B1 VH with K71V
VL: B1 VL with V3L, Q100A
notes: Cross pair; Measured as full length IgG; also called C3 Vκ/C2 VH
B9: CoDAH design C2 VH/C4 Vκ (antibody, V domains shown)
VH: B1 VH with K71V
VL: B1 VL
notes: as for B1
B10: CoDAH design C2 VH/C5 Vκ (antibody, V domains shown)
VH: B1 VH with K71V
VL: B1 VL with D1E, P40T, K45R, V58I
notes: as for B1
B11: CoDAH design C3 VH/C1 Vκ (antibody, V domains shown)
VH: B1 VH with Q16E, K71V
VL: B1 VL with V9D, I10F, L11Q, S14T, G16K, R18K, F21I, S22T, Q100A
notes: as for B1
B12: CoDAH design C3 VH/C2 Vκ (antibody, V domains shown)
VH: B1 VH with Q16E, K71V
VL: B1 VL with I10F, S14T, R18K, F21I, S22T, Q100A
notes: as for B1
B13: CoDAH design C3 VH/C3 Vκ (antibody, V domains shown)
VH: B1 VH with Q16E, K71V
VL: B1 VL with V3L, Q100A
notes: as for B2
B14: CoDAH design C3 VH/C4 Vκ (antibody, V domains shown)
VH: B1 VH with Q16E, K71V
VL: B1 VL
notes: as for B1
B15: CoDAH design C3 VH/C5 Vκ (antibody, V domains shown)
VH: B1 VH with Q16E, K71V
VL: B1 VL with D1E, P40T, K45R, V58I
notes: as for B1
B16: CoDAH design C4 VH/C3 Vκ (antibody, V domains shown)
VH: B1 VH with T73N, N76S, S79F, L80F, L82M, S83N, V85L, T86Q
VL: B1 VL with V3L, Q100A
notes: as for B1
B17: CoDAH design C4 VH/C4 Vκ (antibody, V domains shown)
VH: B1 VH with T73N, N76S, S79F, L80F, L82M, S83N, V85L, T86Q
VL: B1 VL
notes: as for B2
B18: CoDAH design C4 VH/C5 Vκ (antibody, V domains shown)
VH: B1 VH with T73N, N76S, S79F, L80F, L82M, S83N, V85L, T86Q
VL: B1 VL with D1E, P40T, K45R, V58I
notes: as for B1
B19: CoDAH design C5 VH/C4 Vκ (antibody, V domains shown)
VH: QVQLQQSGPGLVKPSETLSITCTVSGFSLTNYGVHWVRQSPGKGLEWLGVIWSGGNTDYNTPFTSRLTINKDNSKSQVFFKMNSLQSNDTAVYYCARALTYYDYEFAYWGQGTLVTVSA
VL: B1 VL
notes: as for B1
B20: CoDAH design C4 VH/C1 Vκ (antibody, V domains shown)
VH: B19 VH with E16Q, I20L, N70S
VL: B1 VL with V9D, I10F, L11Q, S14T, G16K, R18K, F21I, S22T, Q100A
notes: as for B1
B21: CoDAH design C4 VH/C2 Vκ (antibody, V domains shown)
VH: B19 VH with E16Q, I20L, N70S
VL: B1 VL with I10F, S14T, R18K, F21I, S22T, Q100A
notes: as for B1
B22: CoDAH design C5 VH/C1 Vκ (antibody, V domains shown)
VH: B19 VH
VL: B1 VL with V9D, I10F, L11Q, S14T, G16K, R18K, F21I, S22T, Q100A
notes: as for B1
B23: CoDAH design C5 VH/C2 Vκ (antibody, V domains shown)
VH: B19 VH
VL: B1 VL with I10F, S14T, R18K, F21I, S22T, Q100A
notes: as for B1
B24: CoDAH design C5 VH/C3 Vκ (antibody, V domains shown)
VH: B19 VH
VL: B1 VL with V3L, Q100A
notes: as for B1
B25: CoDAH design C5 VH/C5 Vκ (antibody, V domains shown)
VH: B19 VH
VL: B1 VL with D1E, P40T, K45R, V58I
notes: as for B2

Target: T1, recombinant, soluble his tagged human EGFR (Sino Biologicals) (human, UniProt P00533 25-645)
T1 construct: extracellular domain; also called human epidermal growth factor receptor; not shown: his tag
Experiment: BLI (ForteBio Octet Red), IgG on protein A tips, 100 nM soluble EGFR;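 also: antibody binding to EGFR read out as on and off rates plus equilibrium affinity, calculated with the Octet instrument software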
Description: The EGFR binding affinities of all antibodies were estimated using biolayer interferometry on a ForteBio Octet Red instrument (ForteBio, Menlo Park, Calif., USA). […] Association and dissociation rates and equilibrium affinity were determined using software provided with the instrument.

| Binder | binding result |
| --- | --- |
| B1 | binds |
| B2 | binds |
| B3 | binds |
| B4 | binds |
| B5 | binds |
| B6 | binds |
| B7 | binds |
| B8 | binds |
| B9 | binds |
| B10 | binds |
| B11 | binds |
| B12 | binds |
| B13 | binds |
| B14 | binds |
| B15 | binds |
| B16 | binds |
| B17 | binds |
| B18 | binds |
| B19 | binds |
| B20 | binds |
| B21 | binds |
| B22 | binds |
| B23 | binds |
| B24 | binds |
| B25 | binds |
